Assays:
[1] = molecular target: T1, anti-VEGF/ANG2 antibody (IgG1 subclass with mutations P329G/L234A/L235A/I253A/H310A/H435A); test: ELISA assay C, tracer FcγRI-Dig, target 3 ng/mL
T1 construct: Format of the bispecific antibody not described; Positions are EU numbers, not positions on the UniProt entry; also called sample 1; antibody 1

[2] = molecular target: T2, anti-VEGF/ANG2 antibody (IgG1 subclass with mutations P329G/L234A/L235A); test: ELISA assay C, tracer FcγRI-Dig, target 3 ng/mL
T2 construct: Positions are EU numbers; also called sample 2; antibody 2

[3] = molecular target: T3, anti-IGF-1R antibody (IgG1 subclass with mutations I253A/H310A/H435A); test: ELISA assay C, tracer FcγRI-Dig, target 3 ng/mL
T3 construct: Positions are EU numbers; also called sample 3; antibody 3

[4] = molecular target: T4, anti-P-Selectin antibody (IgG4 subclass with mutations S228P/L235E); test: ELISA assay C, tracer FcγRI-Dig, target 3 ng/mL
T4 construct: Positions are EU numbers; also called sample 4; antibody 4

[5] = molecular target: T5, anti-VEGF/ANG2 antibody (wild-type IgG1 subclass) (UniProt P01857-1 1-330 = IgG part); test: ELISA assay C, tracer FcγRI-Dig, target 3 ng/mL
T5 construct: also called sample 5; antibody 5

[6] = molecular target: T1, anti-VEGF/ANG2 antibody (IgG1 subclass …); test: ELISA assay C, tracer FcγRI-Dig, target 6 ng/mL
[7] = molecular target: T2, anti-VEGF/ANG2 antibody (IgG1 subclass …); test: ELISA assay C, tracer FcγRI-Dig, target 6 ng/mL
[8] = molecular target: T3, anti-IGF-1R antibody (IgG1 subclass …); test: ELISA assay C, tracer FcγRI-Dig, target 6 ng/mL
[9] = molecular target: T4, anti-P-Selectin antibody (IgG4 subclass …); test: ELISA assay C, tracer FcγRI-Dig, target 6 ng/mL
[10] = molecular target: T5, anti-VEGF/ANG2 antibody (wild-type IgG1 …); test: ELISA assay C, tracer FcγRI-Dig, target 6 ng/mL
[11] = molecular target: T1, anti-VEGF/ANG2 antibody (IgG1 subclass …); test: ELISA assay C, tracer FcγRI-Dig, target 13 ng/mL
[12] = molecular target: T2, anti-VEGF/ANG2 antibody (IgG1 subclass …); test: ELISA assay C, tracer FcγRI-Dig, target 13 ng/mL
[13] = molecular target: T4, anti-P-Selectin antibody (IgG4 subclass …); test: ELISA assay C, tracer FcγRI-Dig, target 13 ng/mL
[14] = molecular target: T1, anti-VEGF/ANG2 antibody (IgG1 subclass …); test: ELISA assay B, tracer M1.7.10-Dig, target 25 ng/mL
Procedure: (§1) Biotinylated anti-PG Fc-region antibody or biotinylated anti-AAA Fc-region antibody, respectively, was bound to the wells of a streptavidin-coated multi-well plate (SA-MTP) to produce a capture plate. Excess of unbound antibody was removed by washing. Sample/standard antibodies spiked in human and cynomolgus monkey serum (10% final concentration) was added to wells of the SA-MTP multi-well plate coated with the capture plate and incubated for 1 hour at room temperature. After washing, the wells were incubated with digoxygenylated anti-human kappa antibody M1.7.10 (see e.g. WO 2011/048043, incorporated herein by reference). After washing the bound digoxygenylated anti-human kappa antibody complex was incubated with a horseradish peroxidase (HRP) labelled anti-digoxygenin antibody. After another washing step, an ABTS solution was added to the wells and incubated. The product of the color reaction was measured by Elisa reader at 405 nm wavelength (reference wavelength: 490 nm). Absorbance values of each sample or standard were determined in triplicates.

[15] = molecular target: T2, anti-VEGF/ANG2 antibody (IgG1 subclass …); test: ELISA assay B, tracer M1.7.10-Dig, target 25 ng/mL
Procedure: as §1

[16] = molecular target: T3, anti-IGF-1R antibody (IgG1 subclass …); test: ELISA assay B, tracer M1.7.10-Dig, target 25 ng/mL
Procedure: as §1

[17] = molecular target: T4, anti-P-Selectin antibody (IgG4 subclass …); test: ELISA assay B, tracer M1.7.10-Dig, target 25 ng/mL
Procedure: as §1

[18] = molecular target: T5, anti-VEGF/ANG2 antibody (wild-type IgG1 …); test: ELISA assay B, tracer M1.7.10-Dig, target 25 ng/mL
Procedure: as §1

[19] = molecular target: T1, anti-VEGF/ANG2 antibody (IgG1 subclass …); test: ELISA assay C, tracer FcγRI-Dig, target 0 ng/mL (blank)
[20] = molecular target: T2, anti-VEGF/ANG2 antibody (IgG1 subclass …); test: as above
[21] = molecular target: T3, anti-IGF-1R antibody (IgG1 subclass …); test: as above
[22] = molecular target: T4, anti-P-Selectin antibody (IgG4 subclass …); test: as above
[23] = molecular target: T5, anti-VEGF/ANG2 antibody (wild-type IgG1 …); test: as above

Binder	signal [OD405 nm] [1] [OD405 nm]	signal [OD405 nm] [2] [OD405 nm]	signal [OD405 nm] [3] [OD405 nm]	signal [OD405 nm] [4] [OD405 nm]	signal [OD405 nm] [5] [OD405 nm]	signal [OD405 nm] [6] [OD405 nm]	signal [OD405 nm] [7] [OD405 nm]	signal [OD405 nm] [8] [OD405 nm]	signal [OD405 nm] [9] [OD405 nm]	signal [OD405 nm] [10] [OD405 nm]	signal [OD405 nm] [11] [OD405 nm]	signal [OD405 nm] [12] [OD405 nm]	signal [OD405 nm] [13] [OD405 nm]	signal [OD405 nm] [14] [OD405 nm]	signal [OD405 nm] [15] [OD405 nm]	signal [OD405 nm] [16] [OD405 nm]	signal [OD405 nm] [17] [OD405 nm]	signal [OD405 nm] [18] [OD405 nm]	signal [OD405 nm] [19] [OD405 nm]	signal [OD405 nm] [20] [OD405 nm]	also measured
anti-PG variant Fc-region antibody M1.3.17 (antibody, V domains shown, Monomeric, bivalent full-length antibody with murine variable domains; Biotinylated when used as capture antibody; also called anti-PG antibody clone 1.3.17; M1.3.17-Bi) VH: EVKLLESGGGLVQPGGSLKLSCAASGIDFRRYWMNWVRQAPGKGLEWIGEIDPDSSTINYTPSLKDKFIISRDNAKNTMYLQMRKVRSEDTALYYCARPYDYGAWFAYWGQGTLVTVSA VL: QAVVTQESALTTSPGETVTLTCRSTTGAVTTSNYANWVQEKPDHLFTGLIGGTNKRAPGVPARFSGSLIGDKAALTITGAQTEDEAIYFCALWYSDHWVFGGGTKLTVL	1.16	1.22	1.21	1.19	1.19	1.17	1.22	1.21	1.18	1.17	1.14	1.23	1.16	0.035	0.213	0.046	0.047	0.043	1.18	1.23	signal [OD405 nm] [21]: 1.22 OD405 nm; signal [OD405 nm] [22]: 1.19 OD405 nm; signal [OD405 nm] [23]: 1.2 OD405 nm
anti-PG variant Fc-region antibody M1.7.24 (monomeric, bivalent) (antibody, V domains shown, Full-length Y-shaped antibody with murine variable domains; Biotinylated when used as capture antibody; also called anti-PG antibody clone 1.7.24; M1.7.24-Bi) VH: EVKLLESGGGLVQPGGSLKLSCAASGFDFSRYWMNWVRQAPGKGLEWIGEITPDSSTINYTPSLKDKFIISRDNAKNTLYLQMIKVRSEDTALYYCVRPYDYGAWFASWGQGTLVTVSA VL: QAVVTQESALTTSPGETVTLTCRSSTGAVTTSNYANWVQEKPDHLFTGLIGGTNKRAPGVPARFSGSLIGDKAALTITGAQTEDEAIYFCALWYSNHWVFGGGTKLTVL	0.094	0.057	0.077	0.053	0.053	0.079	0.06	0.069	0.053	0.057	0.085	0.06	0.066	0.047	3.16	0.048	0.04	0.041	0.076	0.092	signal [OD405 nm] [21]: 0.086 OD405 nm; signal [OD405 nm] [22]: 0.076 OD405 nm; signal [OD405 nm] [23]: 0.073 OD405 nm
anti-AAA variant Fc-region antibody M1.6.22 (antibody, V domains shown, Murine variable domains; also called M1.6.22-Bi) VH: EVQLVESGGDLVKPGGSLKLSCAASGFTFSSYGMSWVRQTPDKRLEWVATISSGGSYIYYPDSVKGRFTISRDNAKNTLYLQMSSLKSEDTAMYYCARLGMITTGYAMDYWGQGTSVTVSS VL: DVLMTQTPLSLPVSLGDQASISCRSSQTIVHSTGHTYLEWFLQKPGQSPKLLIYKVSNRFSGVPDRFSGSGSGTDFTLKISRVEAEDLGVYYCFQGSHVPYTFGGGTKLEIK	0.066	0.068	0.083	0.05	0.069	0.06	0.06	0.104	0.051	0.064	0.064	0.061	0.052	0.044	0.092	2.89	0.048	0.047	0.077	0.064	signal [OD405 nm] [21]: 0.069 OD405 nm; signal [OD405 nm] [22]: 0.077 OD405 nm; signal [OD405 nm] [23]: 0.069 OD405 nm

Reference: patent US20240410900A1 (Hoffmann-La Roche, published 2024)
